According to IntAct's records for PubMed 17986610:

Columns and labels:
plk1_xenla plk1 = plk1_xenla plk1 (UniProt P70032)
trcb_xenla fbxw1 = trcb_xenla fbxw1 (UniProt Q91854)
Sequence of trcb_xenla fbxw1 (Q91854 whole entry): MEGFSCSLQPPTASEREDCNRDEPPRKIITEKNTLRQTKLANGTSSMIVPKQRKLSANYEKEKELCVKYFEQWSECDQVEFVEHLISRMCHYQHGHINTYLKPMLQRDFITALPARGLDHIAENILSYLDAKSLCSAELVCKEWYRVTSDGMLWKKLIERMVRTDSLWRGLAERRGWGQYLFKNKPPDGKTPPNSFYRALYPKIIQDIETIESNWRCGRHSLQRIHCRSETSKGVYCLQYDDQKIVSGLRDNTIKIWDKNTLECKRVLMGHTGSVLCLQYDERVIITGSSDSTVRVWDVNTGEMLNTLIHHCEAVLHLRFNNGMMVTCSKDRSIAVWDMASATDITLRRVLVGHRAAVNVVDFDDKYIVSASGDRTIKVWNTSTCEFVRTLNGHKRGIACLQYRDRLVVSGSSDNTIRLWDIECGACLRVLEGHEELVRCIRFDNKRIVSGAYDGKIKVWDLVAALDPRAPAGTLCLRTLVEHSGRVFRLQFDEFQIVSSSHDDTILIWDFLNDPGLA

Sequence of Cytoplasmic polyadenylation element-binding protein 1-A (Xenopus laevis (African clawed frog)), Q91572 T125A (Q91572 whole entry T125A): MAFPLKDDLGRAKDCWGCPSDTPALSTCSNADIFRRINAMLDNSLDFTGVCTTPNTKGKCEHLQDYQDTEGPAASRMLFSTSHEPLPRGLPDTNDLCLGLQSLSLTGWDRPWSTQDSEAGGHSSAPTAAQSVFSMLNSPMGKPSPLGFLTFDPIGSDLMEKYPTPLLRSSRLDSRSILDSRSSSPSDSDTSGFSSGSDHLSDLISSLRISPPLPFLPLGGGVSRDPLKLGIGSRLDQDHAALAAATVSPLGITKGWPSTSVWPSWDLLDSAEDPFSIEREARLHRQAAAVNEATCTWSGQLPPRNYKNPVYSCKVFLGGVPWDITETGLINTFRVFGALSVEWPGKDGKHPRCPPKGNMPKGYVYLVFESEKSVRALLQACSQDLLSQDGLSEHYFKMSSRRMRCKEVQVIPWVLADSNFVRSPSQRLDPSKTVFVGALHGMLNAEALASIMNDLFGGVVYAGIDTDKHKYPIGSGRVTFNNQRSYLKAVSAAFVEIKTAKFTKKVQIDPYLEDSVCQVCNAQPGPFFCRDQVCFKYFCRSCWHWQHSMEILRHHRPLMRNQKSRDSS
Sequence of plk1_xenla plk1 (P70032 whole entry): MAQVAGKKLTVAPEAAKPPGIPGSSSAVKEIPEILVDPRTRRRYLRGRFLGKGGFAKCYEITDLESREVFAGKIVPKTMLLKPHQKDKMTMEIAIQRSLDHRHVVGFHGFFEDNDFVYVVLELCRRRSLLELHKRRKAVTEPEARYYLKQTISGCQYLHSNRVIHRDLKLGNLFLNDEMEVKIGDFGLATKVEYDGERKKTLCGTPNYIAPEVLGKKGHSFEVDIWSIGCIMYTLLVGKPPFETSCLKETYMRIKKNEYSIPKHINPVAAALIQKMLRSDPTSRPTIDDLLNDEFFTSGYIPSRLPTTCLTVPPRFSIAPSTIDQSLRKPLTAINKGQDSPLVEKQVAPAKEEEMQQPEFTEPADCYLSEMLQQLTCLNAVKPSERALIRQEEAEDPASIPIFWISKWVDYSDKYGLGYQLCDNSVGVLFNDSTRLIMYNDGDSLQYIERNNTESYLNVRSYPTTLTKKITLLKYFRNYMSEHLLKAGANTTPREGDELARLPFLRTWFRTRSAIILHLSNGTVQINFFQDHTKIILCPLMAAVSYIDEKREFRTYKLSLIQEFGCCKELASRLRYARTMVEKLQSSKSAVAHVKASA
Sequence of Cytoplasmic polyadenylation element-binding protein 1-A (Xenopus laevis (African clawed frog)), Q91572 G192A (Q91572 whole entry G192A): as the sequence (Q91572 whole entry T125A) above, with A125T, G192A counted along it

Row | effect of a mutation on the interaction (plk1_xenla plk1) | effect of a mutation on the interaction (trcb_xenla fbxw1) | Substance
1 | decreasing interaction |  | Cytoplasmic polyadenylation element-binding protein 1-A (Xenopus laevis (African clawed frog)), Q91572 T125A
2 |  | decreasing interaction | Cytoplasmic polyadenylation element-binding protein 1-A (Xenopus laevis (African clawed frog)), Q91572 G192A
